Measurements reported in patent US20120328625A1 (AstraZeneca / MedImmune, published 2012).

Tests used:
[1] = molecular target: T1, Shh-N in conditioned medium (human, UniProt Q15465 24-197, N-terminal palmitoyl modification; lacks the C-terminal cholesterol moiety); test: cell-based or functional assay
biotinylated human Shh = molecular target: T2, biotinylated human Shh (human, UniProt Q15465 24-197, limits assumed, biotinylated); test: ELISA, hybridoma supernatant on neutravidin-captured biotin-Shh
T2 construct: also called biotin-Shh; immobilized biotinylated Shh
Procedure: After blocking with 1% milk in PBS, 40 μl of 500 ng/ml biotinylated Shh in 1×PBS, 1% milk (wt/vol) was added to each well and incubated for 1 hr at RT. Hybridoma supernatants (10 μl/well) were added to 40 μl of 1% milk, 0.05% Tween-20 in PBS per well and incubated 1 hr at RT. Following washing and incubation with secondary antibody (100 ng/ml goat-anti-human IgG Fc HRP), wells were developed with TMB substrate and subsequently quenched with 1 N HCl.

[2] = molecular target: T1, Shh-N in conditioned medium; test: ELISA, apparent KD, purified antibody on immobilized Shh-CM
Procedure: (§1) The binding of purified antibodies to recombinant human Shh was determined using an ELISA-based method. The N-terminal signaling domain of Shh, Shh-N, was presented in two forms: as a purified protein isolated from bacteria lacking lipid modifications and as a constituent of conditioned medium in a form that contains the N-terminal palmitoyl modification but lacks the C-terminal cholesterol moiety.
(§2) The plates were sealed and placed on a shaker overnight at 5° C. The next day, the plates were washed 4 times with PBS with 0.05% Tween 20 (PBS-T). […] The plates were washed four times with PBS-T. Titrations of purified antibody (half log serial dilutions over at least six logs with a starting concentration of 30 μg/mL) were made in 100 μl PBS-T and added into wells and incubated with shaking overnight at 4° C. Antibody controls included human IgG2 and IgG4 (Sigma-Aldrich, Cat, #I5404 and #I4639, respectively). […] Following washing with PBS-T, the chemiluminescent Peroxidase substrate (Sigma cat# CPS-2-60) was added at room temperature and incubated for ten minutes with the plate covered by foil. Each well was read for 100 msec in the Spectromax 5e to determine RLU.

[3] = molecular target: T3, Recombinant Human Sonic Hedgehog C24II amino terminal peptide (R&D Systems cat#1845-SH) (human, UniProt Q15465 24-197); test: ELISA, apparent KD, purified antibody on immobilized Shh C24II
T3 construct: domain: amino terminal peptide; bought; also called Shh-C24II; C24II peptide
Procedure: as §1, §2

[4] = molecular target: T4, Recombinant Human Desert Hedgehog C23II, amino terminal peptide (R&D Systems cat#4777-HH) (human, UniProt O43323 23-198); test: ELISA, immobilized human Dhh, antibody 30 µg/ml to 1 pg/ml
T4 construct: domain: amino terminal peptide; bought; also called Human Dhh
Procedure: The plates were washed four times with PBS-T. Titrations of purified antibody (half log serial dilutions over at least six logs with a starting concentration of 30 μg/mL) were made in 100 μl PBS-T and added into wells and incubated with shaking overnight at 4° C. Antibody controls included human IgG2 and IgG4 (Sigma-Aldrich, Cat, #I5404 and #I4639, respectively). […] Following washing with PBS-T, the chemiluminescent Peroxidase substrate (Sigma cat# CPS-2-60) was added at room temperature and incubated for ten minutes with the plate covered by foil. Each well was read for 100 msec in the Spectromax 5e to determine RLU.
After washing with PBS-T and blocking with 1% BSA, antibody titrations spanning concentrations of 30 μg/ml to 1 pg/ml prepared by half log serial dilution in PBS-T were added to wells and incubated with shaking overnight at 4° C.

[5] = molecular target: T1, Shh-N in conditioned medium; test: cell-based or functional assay; remark: listed apart in the source
[6] = molecular target: T5, full length human Shh expressed on the cell surface (human, UniProt Q15465 24-462); test: cell-based or functional assay
[7] = molecular target: T5, full length human Shh expressed on the …; test: flow cytometry, hybridoma-derived hIgG4 on HEK 293 cells stably expressing full length Shh; 95% CI ±141 pM
Procedure: (§3) The binding affinity of the purified antibodies for full length Shh ectopically expressed on the surface of a pool of stable HEK 293 cells was determined using flow cytometry. […] Antibody was mixed with cells at approximately 74,000 cells/well in a final volume of 300 μl in a polypropylene microtiter plate. The plate was incubated with shaking for 5 hours at 4° C. […] The plates were shaken for 20 minutes at 4° C. The mean fluorescence of 10,000 events was recorded for each sample using FACS Canto II HTS flow cytometry instrumentation. A plot of the mean fluorescence as a function of antibody concentration was fit nonlinearly with Scientist 3.0 software to estimate KD.

[8] = molecular target: T1, Shh-N in conditioned medium; test: cell-based or functional assay; remark: listed apart in the source
[9] = molecular target: T5, full length human Shh expressed on the …; test: cell-based or functional assay; remark: listed apart in the source
[10] = molecular target: T5, full length human Shh expressed on the …; test: flow cytometry, exhaust hybridoma supernatant 1:10, 293T cells transiently expressing human Shh
Procedure: Finally, binding of antibody in exhaust hybridoma supernatants to native Shh was assessed using flow cytometry. […] Transfected or parental cells were seeded into the plates with V-bottom wells (50,000 cells/well). Exhaust supernatants (50 μl of a 1:10 dilution) were added to each well and incubated at 4° C. for 1 hr. […] It was added to a concentration of 2 μg/ml in a volume of 50 μl. Cells were washed and 50 μl of a 2 μg/ml solution of secondary antibody (Cy5-labeled goat-anti-human IgG or Cy5-labeled goat-anti-rabbit IgG) were added to each well. 7AAD was added to a concentration of 5 μg/ml and the mixture was incubated for 30 min at RT. The mean fluorescence for each sample was then determined using flow cytometry.

[11] = molecular target: T5, full length human Shh expressed on the …; test: FMAT, hybridoma supernatant on 293T cells transiently expressing human Shh
Procedure: Cells were maintained at 1×10⁶ cells/ml overnight at 37° C., 5% CO₂. […] Supernatants were added to each well (10 μl/well) and incubated 1.5 hrs at RT. […] Plates were read on the FMAT 8100 HTS system from Applied Biosystems. Total signal (FL1×count) is defined as the number of positive cells in a well (count) multiplied by the average fluorescence intensity of the positive cells (FL1).

[12] = molecular target: T1, Shh-N in conditioned medium; test: SPR (Biacore T100), recombinant IgG2 mAb amine-coupled to CM5, Shh as analyte, 1:1 model
Procedure: (§4) The binding affinity of four purified recombinant antibodies expressed in a human IgG2 constant domain background was measured by high resolution Biacore. All experiments were performed using a Biacore T100 instrument at 23° C. […] All mAbs were covalently coupled to a CM5 biosensor chip using routine amine coupling chemistry. […] For experiments with Shh-containing conditioned media (CM), a 1.5 mL aliquot was centrifuged for 10 minutes at 13,200 rpm. […] Shh samples were randomly injected in triplicate with several buffer inject cycles interspersed for double referencing. All sensorgram data were processed using Scrubber and fit to a 1:1 interaction model (including a term kₘ for mass transport) using CLAMP.

[13] = molecular target: T3, Recombinant Human Sonic Hedgehog C24II …; test: as above
Procedure: as §4

[14] = molecular target: T5, full length human Shh expressed on the …; test: flow cytometry, recombinant hIgG2 on CAOV3 cells stably over-expressing full length Shh; 95% CI ±30.4 pM
[15] = molecular target: T1, Shh-N in conditioned medium; test: cell-based or functional assay; remark: listed apart in the source
[16] = molecular target: T6, Recombinant Human/Mouse Indian Hedgehog C28II, amino terminal peptide (R&D Systems cat#1705-HH/CF) (human/mouse (100% sequence identity in …, UniProt Q14623 28-202)); test: ELISA, apparent KD, purified antibody on immobilized human/mouse Ihh
T6 construct: domain: amino terminal peptide; bought; also called Human/mouse Ihh; Ihh-N C28II
Procedure: as §2

[17] = molecular target: T5, full length human Shh expressed on the …; test: flow cytometry, hybridoma-derived hIgG4 on HEK 293 cells stably expressing full length Shh; 95% CI ±40 pM
Procedure: as §3

[18] = molecular target: T5, full length human Shh expressed on the …; test: flow cytometry, recombinant hIgG2 on CAOV3 cells stably over-expressing full length Shh; 95% CI ±19.4 pM
[19] = molecular target: T1, Shh-N in conditioned medium; test: SPR (Biacore T100), recombinant IgG2 mAb amine-coupled to CM5, Shh as analyte, 1:1 model; KD only an estimate
Procedure: as §4

[20] = molecular target: T3, Recombinant Human Sonic Hedgehog C24II …; test: as above
Procedure: as §4

[21] = molecular target: T5, full length human Shh expressed on the …; test: flow cytometry, recombinant hIgG2 on CAOV3 cells stably over-expressing full length Shh; 95% CI ±460 pM
[22] = molecular target: T5, full length human Shh expressed on the …; test: flow cytometry, recombinant hIgG2 on CAOV3 cells stably over-expressing full length Shh; 95% CI ±32.4 pM

Row | Binder | IC50, inhibition of osteoblast differentiation (alkaline phosphatase) of C3H10T1/2 cells [1] | Kd [2] | Kd [3] | % Inhibition of Gli1 reporter, Conditioned Media N = 1, 20 µg/ml [5] | % Inhibition of Gli1 reporter, Conditioned Media N = 2, 20 µg/ml [5] | % Inhibition of Gli1 reporter, Co-Culture N = 1, 20 µg/ml [6] | % Inhibition of Gli1 reporter, Co-Culture N = 2, 20 µg/ml [6] | % Inh of Gli1 reporter, CM N = 1 [8] | % Inh of Gli1 reporter, CM N = 3 [8] | % Inh of Gli1 reporter, Co-Culture N = 1 [9] | % Inh of Gli1 reporter, Co-Culture N = 2 [9] | X Geo Mean (Transients) [10] | FL1 X COUNT [11] | Kd [12] | Kd [13] | other results
1 | 3H8 recombinant IgG2 (antibody, V domains shown) VH: QVQLVESGGGVVQPGRSLRLSCAASGFTFSTYGMHWVRQAPGKGLEWVAVIWYDGSNKYYADSVKGRFTISRDNSKNTLNLQMNSLRAEDTAVYYCARDLYYYGSGSPFDYWGQGTLVTVSS VL: EIVMTQSPATLSVSPGERATLSCRASQSVSSNLAWYQQKPGQAPRLLIFGVSIRATGIPARFSGSGSGTEFTLTISSLQSEDFAVYYCQQYNNWPRPGFGGGTKVEIK |  |  |  |  |  |  |  |  |  |  |  |  |  | 0.0056 nM | 0.0267 nM | Kd [14]: 0.0682 nM
2 | 6D7 (antibody, V domains shown, fully human XenoMouse hybridoma antibody; also called MAb 6D7) VH: QVQLQESGPGLVKPSQTLSLTCTVSGGSINSGGFYWSWIRQHPGKNLEWIGSIYYSGNTYYNPSLKSRVTISVDTSKNQFSLKLTSVTAADTAVYYCARGNDSGDYDWYFDLWGRGTLVTVSS VL: SYELTQPPSVSVSPGQTASITCSGEKLGYKYVCWYQQKPGQSPVLVIFHDNKRPSGIPERFSGSNSGNTATLTISGAQAMDEADYYCQAGDSSAVFGGGTKLTVL | 5.3 nM | 0.06 nM | 0.047 nM | 89% | 111% | 80% | 68% | -8% | -1% | 46% | 22% | 313 | 661000 |  |  | IC50, inhibition of endogenous mouse Gli1 mRNA (qRT-PCR) in C3H10T1/2 cells [15]: 11.7 nM; IC50, inhibition of endogenous mouse Ptc1 mRNA (qRT-PCR) in C3H10T1/2 cells [15]: 8.2 nM; binding result [4]: no binding; Kd [16]: 0.052 nM; Kd [17]: 0.107 nM
3 | 6D7 recombinant IgG2 (antibody, V domains shown) VH: QVQLQESGPGLVKPSQTLSLTCTVSGGSINSGGFYWSWIRQHPGKNLEWIGSIYYSGNTYYNPSLKSRVTISVDTSKNQFSLKLTSVTAADTAVYYCARGNDSGDYDWYFDLWGRGTLVTVSS VL: SYELTQPPSVSVSPGQTASITCSGEKLGYKYVCWYQQKPGQSPVLVIFHDNKRPSGIPERFSGSNSGNTATLTISGAQAMDEADYYCQAGDSSAVFGGGTKLTVL |  |  |  |  |  |  |  |  |  |  |  |  |  |  |  | Kd [18]: 0.0371 nM; Kd [19]: 0.0034 nM; Kd [20]: 0.0135 nM
4 | 1G1 (antibody, V domains shown, fully human XenoMouse hybridoma antibody; also called MAb 1G1) VH: EVQLVESGGGLVKPGGSLRLSCAASGFTFSSYSMNWVRQAPGKGLEWVSSFSSSSSYIYYADSVKGRFTISRDNAKNSLYLQMNSLRAEDTAVYYCARDRGDYVDYYYGMDVWGQGTTVTVSS VL: SYELTQPPSVSVSPGQTASITCSGDKLDYKYICWYQQKPGQSPVLVIYQDIKRPSGIPERFSGSNSGNTATLTISGTQAMDEADYYCQAWDSNTPLVFGGGTKLTVL | 5.7 nM | 0.03 nM | 0.061 nM | 50% | 61% | 44% | 55% | 33% | 47% | 42% | 39% | 188 | 585000 |  |  | IC50, inhibition of endogenous mouse Gli1 mRNA (qRT-PCR) in C3H10T1/2 cells [15]: 7.7 nM; IC50, inhibition of endogenous mouse Ptc1 mRNA (qRT-PCR) in C3H10T1/2 cells [15]: 8.7 nM; OD450 (biotinylated human Shh): 4.3 OD450; % Inhibition of Gli1 reporter, Co-Culture N = 3, 20 µg/ml [6]: 19%

Now from value to binder, other results behind:

Row | IC50, inhibition of osteoblast differentiation (alkaline phosphatase) of C3H10T1/2 cells [1] | Kd [2] | Kd [3] | % Inhibition of Gli1 reporter, Conditioned Media N = 1, 20 µg/ml [5] | % Inhibition of Gli1 reporter, Conditioned Media N = 2, 20 µg/ml [5] | % Inhibition of Gli1 reporter, Co-Culture N = 1, 20 µg/ml [6] | % Inhibition of Gli1 reporter, Co-Culture N = 2, 20 µg/ml [6] | % Inh of Gli1 reporter, CM N = 1 [8] | % Inh of Gli1 reporter, CM N = 3 [8] | % Inh of Gli1 reporter, Co-Culture N = 1 [9] | % Inh of Gli1 reporter, Co-Culture N = 2 [9] | X Geo Mean (Transients) [10] | FL1 X COUNT [11] | Kd [12] | Kd [13] | Binder | other results
5 | 3.4 nM | 0.331 nM | 0.069 nM | 37% | 44% | 73% | 87% | 21% | -24% | 35% | 32% | 148 | 497000 |  |  | 3H8 (antibody, V domains shown, fully human XenoMouse hybridoma antibody; also called MAb 3H8) VH: QVQLVESGGGVVQPGRSLRLSCAASGFTFSTYGMHWVRQAPGKGLEWVAVIWYDGSNKYYADSVKGRFTISRDNSKNTLNLQMNSLRAEDTAVYYCARDLYYYGSGSPFDYWGQGTLVTVSS VL: EIVMTQSPATLSVSPGERATLSCRASQSVSSNLAWYQQKPGQAPRLLIFGVSIRATGIPARFSGSGSGTEFTLTISSLQSEDFAVYYCQQYNNWPRPGFGGGTKVEIK | OD450 (biotinylated human Shh): 3.81 OD450; binding result [4]: no binding; Kd [7]: 0.25 nM
6 |  |  |  |  |  |  |  |  |  |  |  |  |  | 4.31 nM | 4.3 nM | 1H8 recombinant IgG2 (antibody, V domains shown, also called 1H8 hIgG2) VH: QVQLQESGPGLVKPSETLSLTCTVSGGSISSYYWTWIRQPPGKGLEWIGYIYYSGSTNYNPSLKSRVTISVDTSKNQFSLKLSSVTAADTAVYYCARDRLLYGMDVWGQGTTVTVSS VL: not shown | koff [12]: 0.00289 s⁻¹; kon [12]: 671000 M⁻¹ s⁻¹; koff [13]: 0.00209 s⁻¹; kon [13]: 486000 M⁻¹ s⁻¹; Kd [21]: 1.52 nM
7 |  |  |  |  |  |  |  |  |  |  |  |  |  | 0.317 nM | 0.377 nM | 1G1 recombinant IgG2 (antibody, V domains shown) VH: EVQLVESGGGLVKPGGSLRLSCAASGFTFSSYSMNWVRQAPGKGLEWVSSFSSSSSYIYYADSVKGRFTISRDNAKNSLYLQMNSLRAEDTAVYYCARDRGDYVDYYYGMDVWGQGTTVTVSS VL: SYELTQPPSVSVSPGQTASITCSGDKLDYKYICWYQQKPGQSPVLVIYQDIKRPSGIPERFSGSNSGNTATLTISGTQAMDEADYYCQAWDSNTPLVFGGGTKLTVL | Kd [22]: 0.0465 nM
